Among the data in US20260062463A1 (KANGYUAN BIOMEDICAL TECH DALIAN, published 2026) are Kd, koff and kon values, retold here.

Test [1] deals with T1, AAV8 (adeno-associated virus 8, Assembled 60-mer capsid of VP1/VP2/VP3 (nested products of one cap gene), amine-coupled to a CM5 chip; the letters give one VP1 subunit only.).
T1 construct: also called adeno-associated virus serotype 8
T1 chain: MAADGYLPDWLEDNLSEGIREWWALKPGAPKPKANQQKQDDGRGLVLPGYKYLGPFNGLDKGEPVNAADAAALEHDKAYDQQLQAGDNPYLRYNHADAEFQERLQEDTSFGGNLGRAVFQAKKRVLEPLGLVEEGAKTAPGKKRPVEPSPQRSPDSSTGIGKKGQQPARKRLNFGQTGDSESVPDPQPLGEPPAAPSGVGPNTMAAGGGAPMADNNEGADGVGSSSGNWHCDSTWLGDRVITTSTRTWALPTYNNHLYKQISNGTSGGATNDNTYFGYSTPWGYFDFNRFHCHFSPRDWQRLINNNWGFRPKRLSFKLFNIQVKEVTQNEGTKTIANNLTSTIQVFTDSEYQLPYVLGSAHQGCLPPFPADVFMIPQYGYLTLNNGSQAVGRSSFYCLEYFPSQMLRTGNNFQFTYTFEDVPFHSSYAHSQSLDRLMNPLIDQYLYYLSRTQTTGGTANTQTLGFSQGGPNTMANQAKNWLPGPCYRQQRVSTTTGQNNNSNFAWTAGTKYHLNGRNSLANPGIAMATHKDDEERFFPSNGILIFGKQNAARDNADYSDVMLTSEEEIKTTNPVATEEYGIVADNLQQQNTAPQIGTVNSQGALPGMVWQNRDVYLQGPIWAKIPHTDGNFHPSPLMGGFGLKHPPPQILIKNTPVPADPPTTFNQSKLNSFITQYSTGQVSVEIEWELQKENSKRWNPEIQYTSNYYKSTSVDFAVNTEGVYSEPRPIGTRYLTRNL
Kind of test: SPR, AAV amine-coupled to CM5 chip.

In test [2] the target is T2, AAV5 (adeno-associated virus 5, Assembled 60-mer capsid of VP1/VP2/VP3 (nested products of one cap gene), amine-coupled to a CM5 chip; the letters give one VP1 subunit only.).
T2 construct: also called adeno-associated virus serotype 5
Kind of test: SPR, AAV amine-coupled to CM5 chip. (Surface plasmon resonance follows binding to a sensor surface in real time, without labels.)

Test [3] has as its target T3, AAV9 (adeno-associated virus 9, Assembled 60-mer capsid of VP1/VP2/VP3 (nested products of one cap gene), amine-coupled to a CM5 chip; the letters give one VP1 subunit only.).
T3 construct: also called adeno-associated virus serotype 9
Put plainly: SPR, AAV amine-coupled to CM5 chip.

Test [4] has as its target T4, AAV8 (adeno-associated virus 8).
T4 construct: also called adeno-associated virus serotype 8
Kind of test: SPR, AAV on CM5 chip.
Procedure: AAV was amine-coupled to a CM5 sensor chip at a density of 500-800 response units (RU). Nanobodies were injected at seven concentrations (1-100 nM) with a flow rate of 45 μL/min, and chip regeneration was performed using glycine-HCl (pH 1.5).

B1: A4-D2 (VHH)
chain: VQLQESGGGLVQAGGSLRLSCAASGRGFSINTMGWYRQAPGKQRELVAAVTRGGTTNYADSVKGRFTISRDNAKNTVYLQMNSLRPEDTAVYYCHVDEVRQSSWTTSNLWGQGTQVTVSSGGGGSGGGGSGGGGSVQLQESGGGLVQAGGSLRLSCAASGRGFSINTMGWYRQAPGKQRELVAAVTRGGTTNYADSVKGRFTISRDNAKNTVYLQMNSLRPEDTAVYYCHVDEVRQSSWTTSNLWGQGTQVTVSSGGGGSGGGGSGGGGSVQLQESGGGLVQAGGSLRLSCAASGRGFSINTMGWYRQAPGKQRELVAAVTRGGTTNYADSVKGRFTISRDNAKNTVYLQMNSLRPEDTAVYYCHVDEVRQSSWTTSNLWGQGTQVTVSSGGGGSGGGGSGGGGSVQLQESGGGLVQAGGSLRLSCAASGRGFSINTMGWYRQAPGKQRELVAAVTRGGTTNYADSVKGRFTISRDNAKNTVYLQMNSLRPEDTAVYYCHVDEVRQSSWTTSNLWGQGTQVTVSS
In test [1], B1 returned a Kd of 0.0821 nM, a koff of 3.6e-06 s⁻¹ and a kon of 43900 M⁻¹ s⁻¹. In test [2], this molecule showed a dissociation constant (Kd) of 0.0996 nM, a koff of 5.7e-06 s⁻¹ and a kon of 57200 M⁻¹ s⁻¹. In test [3], this molecule displayed a Kd of 0.304 nM, a koff of 9e-06 s⁻¹ and an on-rate (kon) of 29600 M⁻¹ s⁻¹.

B2: A4-052 (VHH)
VHH: VQLQESGGGLVQPGGSLRLSCAASGSIFIINTMGWYRQAPGKQRELVAAVTRGGSTNYADSVKGRFTISRDNAKNTVYLQMNSLRPEDTAVYYCHVDEVRQSSWTTSNLWGQGTQVTVSS
In test [4], B2 registered an on-rate (kon) of 31800 M⁻¹ s⁻¹.

B3: A4-D5 (other)
chain: VQLQESGGGLVQPGGSLRLSCVASGSSFSINTMGWYRRAPGKQRELVATVTRDGSTNYANSVKGRFTISRDNAKNTVYLQMNSLRPEDTAVYYCHVDEVRQSSWTTSNLWGQGTQVTVSSGGGGSGGGGSGGGGSVQLQESGGGLVQPGGSLRLSCVASGSSFSINTMGWYRRAPGKQRELVATVTRDGSTNYANSVKGRFTISRDNAKNTVYLQMNSLRPEDTAVYYCHVDEVRQSSWTTSNLWGQGTQVTVSSGGGGSGGGGSGGGGSVQLQESGGGLVQPGGSLRLSCVASGSSFSINTMGWYRQAPGKQRELVATVTRDGSTNYANSVKGRFTISRDNAKNTVYLQMNSLRPEDTAVYYCHVDEVRQSSWTTSNLWGQGTQVTVSSGGGGSGGGGSGGGGSVQLQESGGGLVQPGGSLRLSCVASGSSFSINTMGWYRRAPGKQRELVATVTRDGSTNYANSVKGRFTISRDNAKNTVYLQMNSLRPEDTAVYYCHVDEVRQSSWTTSNLWGQGTQVTVSS
For B3, the Kd was 0.0836 nM in test [1], 0.318 nM in test [2] and 0.117 nM in test [3]. Besides, the dissociation rate constant (koff) is 5e-06 s⁻¹ in test [1], 1.34e-05 s⁻¹ in test [2] and 4.3e-06 s⁻¹ in test [3]. The association rate constant (kon) in test [1] is 59800 M⁻¹ s⁻¹; in test [2], 42100 M⁻¹ s⁻¹; in test [3] it was 36900 M⁻¹ s⁻¹.

B4: A4-C7 (bispecific antibody)
chain: VQLQESGGGLVQPGGSLRLSCAASGSNFSINTMGWYRQAPGKQRELVATVTRGGDTNYADSVKGRFTISRDNAKNTVYLQMNSLRPEDTAVYYCHVDEIRESSWTTSNLWGQGTQVTVSSGGGGSGGGGSGGGGSVQLQESGGGLVQPGGSLRLSCAASGSNFRINTMGWYRQAPGKQRELVAPVTRGGSTNYADSVKGRFTISRDNAKNTVYLQMNSLRPEDTAVYYCHVDEVRESSWTTSNLWGQGTQVTVSSGGGGSGGGGSGGGGSVQLQESGGGLVQPGGSLRLSCAASGSSFTINTMGWYRQAPGKQRELVAAVTRGGSTNYAGSVKGRFTISRDNAKNTIYLQMNSLRPEDTAVYYCHVDEIRQSSWTTSNLWGQGTQVTVSS
In test [1], B4 returned a dissociation constant (Kd) of 3.7 nM, a koff of 0.00047 s⁻¹ and a kon of 127000 M⁻¹ s⁻¹. Also, in test [2], the dissociation constant (Kd) was 0.0732 nM, the dissociation rate constant (koff) was 3.2e-05 s⁻¹ and the association rate constant (kon) was 437000 M⁻¹ s⁻¹. For the same molecule, in test [3], the dissociation constant Kd stood at 0.127 nM, the koff was determined as 1.75e-05 s⁻¹ and the kon was determined as 137000 M⁻¹ s⁻¹.

B5: A4-C8 (bispecific antibody)
chain: VQLQESGGGLVQPGGSLRLSCAASGSNFRINTMGWYRQAPGKQRELVAPVTRGGSTNYADSVKGRFTISRDNAKNTVYLQMNSLRPEDTAVYYCHVDEVRESSWTTSNLWGQGTQVTVSSGGGGSGGGGSGGGGSVQLQESGGGLVQPGGSLRLSCAASGSNFSINTMGWYRQAPGKQRELVATVTRGGDTNYADSVKGRFTISRDNAKNTVYLQMNSLRPEDTAVYYCHVDEIRESSWTTSNLWGQGTQVTVSSGGGGSGGGGSGGGGSVQLQESGGGLVQPGGSLRLSCAASGSNFSINTMGWYRQAPGKQRELVAALTRGGSTNYADSVKGRFTISRDNAKNTVYLQMNSLRPEDTAVYYCHVDEVRESSWTTSNLWGQGTQVTVSS
B5: in test [1], binding was put at a Kd of 2.81 nM, the dissociation rate constant (koff) was 0.00037 s⁻¹ and the on-rate (kon) worked out at 132000 M⁻¹ s⁻¹. In test [2], this molecule had a Kd of 0.69 nM, a koff of 0.00013 s⁻¹ and a kon of 188000 M⁻¹ s⁻¹. Moreover, in test [3], the Kd was 0.279 nM, the koff is 5e-05 s⁻¹ and the kon was determined as 179000 M⁻¹ s⁻¹.

Usually Kd stands for the free concentration of one partner at which half of the binding sites on the other are occupied at equilibrium, for simple one-to-one binding. A high value points to lower affinity. As usually defined, the koff is the first-order rate constant of dissociation. Lower therefore signals a long-lived complex. The term kon denotes the rate constant with which the complex forms.
